Article PMC6226484

Target: Avi-barnase (G34C/H102A), biotinylated, labeled with Alexa 488
Assay: FRET or BRET; single-molecule FRET; donor-labeled barnase immobilised on PEG-coated glass via biotin-NeutrAvidin, acceptor-labeled barstar (20 nM) in solution; 10 mM Tris pH 7, 0 mM NaCl and higher (printed kA at 0 mM NaCl); 22 °C; illumination 0.3 μW; two-state maximum likelihood analysis with correction for acceptor photobleaching

- kon: 1e+08 M⁻¹ s⁻¹
Substance: Cys-barstar, labeled with Alexa 647 (natural protein)
